Reference: publication PMC3834829, “A signature motif mediating selective interactions of BCL11A with the NR2E/F subfamily of orphan nuclear receptors” (Nucleic Acids Research, 2013)

T1: LexA-COUP-TFII-LBD-(144–414) (UniProt P24468 144-414)
T1 construct: the bait copy of the LBD in the dimer assay; same residues as m19; also called wild-type COUP-TFII LBD; full-length LBD; source: yeast two-hybrid fusion (S. cerevisiae L40)
T1 sequence (looked up): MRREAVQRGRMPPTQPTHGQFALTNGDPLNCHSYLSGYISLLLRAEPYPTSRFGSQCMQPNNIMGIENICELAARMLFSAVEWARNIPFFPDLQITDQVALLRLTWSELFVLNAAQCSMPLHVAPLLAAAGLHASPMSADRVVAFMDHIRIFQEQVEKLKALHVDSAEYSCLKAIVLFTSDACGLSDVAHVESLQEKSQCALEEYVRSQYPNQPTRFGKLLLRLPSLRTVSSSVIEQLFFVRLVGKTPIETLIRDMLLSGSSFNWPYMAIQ


How the values were obtained:
[1] = target: AAD-LRH-1-LBD-(133–495) (UniProt O00482); assay: yeast two-hybrid; conditions: parent: est. 1100; read off a plot
Chain of AAD-LRH-1-LBD-(133–495) (O00482 133-495): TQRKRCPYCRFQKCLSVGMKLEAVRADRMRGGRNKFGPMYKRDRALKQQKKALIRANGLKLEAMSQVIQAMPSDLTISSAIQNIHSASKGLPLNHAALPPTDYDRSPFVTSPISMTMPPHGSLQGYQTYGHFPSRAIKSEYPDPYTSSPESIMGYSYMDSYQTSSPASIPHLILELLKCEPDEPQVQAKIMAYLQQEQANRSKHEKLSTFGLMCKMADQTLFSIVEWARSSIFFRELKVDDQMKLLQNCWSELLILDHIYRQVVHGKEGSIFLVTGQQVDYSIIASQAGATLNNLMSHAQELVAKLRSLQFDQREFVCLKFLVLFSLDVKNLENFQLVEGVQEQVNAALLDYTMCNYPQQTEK

[2] = target: LexA-BCL11A RID1 F315A (UniProt Q9H165); assay: two-hybrid; S. cerevisiae L40; LexA DBD fusion with VP16 AAD-NR fusion; β-galactosidase activity in cell-free extracts; vehicle only or no ligand
[3] = target: LexA-BCL11A RID1 R317A (UniProt Q9H165); assay: as above
[4] = target: LexA-BCL11A RID1 R320A (UniProt Q9H165); assay: as above
[5] = target: T1, LexA-COUP-TFII-LBD-(144–414); assay: as above; conditions: partners not purified

Row | response [1] [nmol/mg/min] | Molecule | further results
1 | 660 | LexA-NSD1-(790–818) D812A | –
2 | 710 | LexA-NSD1-(790–818) K811A | –
3 | 470 | LexA-NSD1-(790–818) L807A | –
4 | 0 | LexA-NSD1-(790–818) M809A | –
5 | 0 | LexA-NSD1-(790–818) S804A | –
6 | 690 | LexA-NSD1-(790–818) Y801A | –

Second part, the molecule before the results:

Row | Molecule | response [1] [nmol/mg/min] | further results
7 | LexA-NSD1-(790–818) F803A | 310 | –
8 | LexA-NSD1-(790–818) K802A | 1300 | –
9 | LexA-NSD1-(790–818) L806A | 0 | –
10 | LexA-NSD1-(790–818) L810A | 0 | –
11 | LexA-NSD1-(790–818) M808A | 900 | –
12 | AAD-EAR2-LBD-(121–399) (domain or fragment) MRKEAVQRGRIPHSLPGAVAASSGSPPGSALAAVASGGDLFPGQPVSELIAQLLRAEPYPAAAGRFGAGGGAAGAVLGIDNVCELAARLLFSTVEWARHAPFFPELPVADQVALLRLSWSELFVLNAAQAALPLHTAPLLAAAGLHAAPMAAERAVAFMDQVRAFQEQVDKLGRLQVDSAEYGCLKAIALFTPDACGLSDPAHVESLQEKAQVALTEYVRAQYPSQPQRFGRLLLRLPALRAVPASLISQLFFMRLVGKTPIETLIRDMLLSGSTFNWP | – | fold lower reporter activation than wild-type RID1 [2]: 2 fold
13 | AAD-COUP-TFII-LBD-(144–414) (domain or fragment) MRREAVQRGRMPPTQPTHGQFALTNGDPLNCHSYLSGYISLLLRAEPYPTSRFGSQCMQPNNIMGIENICELAARMLFSAVEWARNIPFFPDLQITDQVALLRLTWSELFVLNAAQCSMPLHVAPLLAAAGLHASPMSADRVVAFMDHIRIFQEQVEKLKALHVDSAEYSCLKAIVLFTSDACGLSDVAHVESLQEKSQCALEEYVRSQYPNQPTRFGKLLLRLPSLRTVSSSVIEQLFFVRLVGKTPIETLIRDMLLSGSSFNWPYMAIQ | – | fold lower reporter activity than wild-type RID1 [3]: 5 fold; fold lower reporter activity than wild-type RID1 [4]: 5 fold
14 | AAD-COUP-TFII-LBD V224A (domain or fragment, UniProt P24468 144-414, looked up, expressed at a 2-fold lower level than the other constructs of the series; also called V224A mutant; source: yeast two-hybrid fusion (S. cerevisiae L40)) MRREAVQRGRMPPTQPTHGQFALTNGDPLNCHSYLSGYISLLLRAEPYPTSRFGSQCMQPNNIMGIENICELAARMLFSAAEWARNIPFFPDLQITDQVALLRLTWSELFVLNAAQCSMPLHVAPLLAAAGLHASPMSADRVVAFMDHIRIFQEQVEKLKALHVDSAEYSCLKAIVLFTSDACGLSDVAHVESLQEKSQCALEEYVRSQYPNQPTRFGKLLLRLPSLRTVSSSVIEQLFFVRLVGKTPIETLIRDMLLSGSSFNWPYMAIQ | – | fold reduction of reporter activation due to homodimer formation [5]: ~2.5 fold
